Measured values reported in patent US20250313619A1, “RISANKIZUMAB COMPOSITIONS” (ABBVIE INC., priority 0001, published 2025).

What was measured:
[1] = target: T1, IL-23 (Homo sapiens, UniProt Q9NPF7); test: Inhibition of IL-23 stimulated IL-17 production; assay type: cell-based; details: read-out: inhibition of IL-23 stimulated IL-17 production, inhibitory concentration (IC) 50
T1 sequence (Q9NPF7 20-189): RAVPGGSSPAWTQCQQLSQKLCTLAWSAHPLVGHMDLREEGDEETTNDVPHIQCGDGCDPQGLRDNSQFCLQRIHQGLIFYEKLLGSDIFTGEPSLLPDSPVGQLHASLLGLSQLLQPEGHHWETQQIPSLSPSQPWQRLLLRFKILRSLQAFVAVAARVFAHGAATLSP
T1 sequence (P29460 23-328 partner): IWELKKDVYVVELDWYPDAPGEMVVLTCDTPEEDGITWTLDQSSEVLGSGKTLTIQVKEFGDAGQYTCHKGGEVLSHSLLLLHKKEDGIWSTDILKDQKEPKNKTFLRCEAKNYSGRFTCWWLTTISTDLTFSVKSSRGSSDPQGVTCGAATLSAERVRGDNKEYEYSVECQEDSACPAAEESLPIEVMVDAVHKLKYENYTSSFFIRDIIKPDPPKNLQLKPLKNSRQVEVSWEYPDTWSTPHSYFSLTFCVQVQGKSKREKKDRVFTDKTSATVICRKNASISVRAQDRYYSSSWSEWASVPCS

[2] = ADCC activity
Source text: (§1) Risankizumab has been designed with Leu234Aa and Leu235Aa mutations in Fc to diminish its Fc effector binding activity.

[3] = target: T1, IL-23; test: Binding to human IL-23
[4] = target: T2, IL-12 (Homo sapiens, UniProt P29459+P29460); test: IL-12 effect / IL-12 stimulated IFN-γ production; assay type: cell-based
T2 sequence (P29459 23-219): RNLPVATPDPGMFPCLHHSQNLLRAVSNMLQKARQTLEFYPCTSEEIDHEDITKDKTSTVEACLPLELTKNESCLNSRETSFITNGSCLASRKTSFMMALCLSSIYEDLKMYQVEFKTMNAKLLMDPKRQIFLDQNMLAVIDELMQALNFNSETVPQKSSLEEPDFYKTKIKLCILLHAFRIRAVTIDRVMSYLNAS
T2 sequence (P29460 23-328): T1 sequence (P29460 23-328 partner)

[5] = system: healthy adult subjects; test: Anti-drug antibody (ADA) incidence after single 150 mg SC dose, bridging electrochemiluminescence immunoassay; assay type: in vivo, human; details: 113 days
Procedure: A single-dose, randomized, two-parallel-arm, open-label, multi-center study in healthy adult subjects was carried out. Subjects received a risankizumab 150 mg dose by subcutaneous (SC) injection in the abdomen using a 150 mg/ml formulation in a prefilled syringe (PFS). Arm 1: Risankizumab 150 mg/mL formulation in PFS produced by Process 4 (150 mg×1 SC injection) (test, N=132); Arm 2: Risankizumab 150 mg/mL formulation in PFS produced by Process 2 (150 mg×1 SC injection) (reference, N=130). Serial blood samples for anti-drug antibody (ADA) were collected over a period of 113 days. […]
The presence of ADA was determined using a validated titer based bridging electrochemiluminescence immunoassay as described below.
This is a qualitative assay designed to detect anti-risankizumab antibodies in human serum. Anti-drug antibodies (ADA) against risankizumab in human serum were detected using an electrochemiluminescent (ECL) immunoassay. […] This complex was bound to a blocked MSD-streptavidin (MSD-SA) plate and detected by a chemiluminescent signal that was generated when voltage was applied. […]
Samples were analyzed in a tiered approach. […]
The confirmatory assay measured the percent inhibition of ECL immunoassay signals of screened positive samples when spiked with excess risankizumab. […]

[6] = CDC activity
Source text: as §1

[7] = Size exclusion chromatography (UP-SEC/SEC): monomer and HMW; assay type: physicochemical; details: compared to Process 1 reference standard DS1-RS2
Source text: (§2) The PLBL2 KO, PLA2G15 KO, LPL KO and wild-type process control materials were thawed and purified using Process 1 (see Example 1), while ultrafiltration/diafiltration (UF/DF) followed Process 4 (see Example 3). […] High molecular weight (HMW) by size exclusion chromatography (SEC), charge variants by weak cation exchange chromatography (WCX), low molecular weight (LMW) by non-reduced capillary electrophoresis sodium dodecyl sulfate (CE-SDS), free fatty acids (FFA) and PS20 levels were monitored during the stability study at various time points.
(§3) Antibody preparations derived from the knock-out samples and controls were tested for the presence of the three lipases by specific ELISA methods: PLBL2 and PLA2G15 were measured using CHO-specific in-house methods and LPL was measured using a commercial anti-mouse ELISA kit. PS20 stability was measured in samples that were incubated for different lengths of time (several time points over a 12-month period) and different temperatures (5° C., 25° C., 40° C.) using two different methods. One method measured the total amount of PS20 present in the sample; PS20 was quantified directly by using a RP-HPLC-CAD method. The other method assessed the breakdown of PS20 by measuring the amount of free fatty acid, mainly lauric acid that was released by hydrolysis. […] The generated signal is directly proportional to the quantity of FFAs released. […]

[8] = Non-reduced capillary gel electrophoresis (CGE-NR / CE-SDS): main peak and LMW; assay type: physicochemical; details: compared to Process 1 reference standard DS1-RS2
Source text: as §2, §3

[9] = Hitchhiker protein spiking study, PS20-CAD subspecies method; assay type: biochemical; details: for activity to PS20 degradation: DP3 and DP4 materials spiked with enzyme (summary); for PS20 degradation: ~30 hours incubation at 25° C.
Source text: PS20-CAD subspecies method was used. This method was originally developed to qualitatively determine subspecies composition and to quantify the PS20 subspecies relative to a PS20 manufacturing standard. The HPLC system used in this study was an Agilent 1260 II infinity HPLC equipped with a quaternary pump, mobile phase degassing unit, refrigerated auto sampler, temperature controlled column compartment, and a Thermo Scientific charged aerosol detector (CAD). Data was collected by Waters Empower acquisition system. Methods for detecting PS20 using Charged Aerosol Detector (CAD) are also described in Example 10.
Since the system takes 70 minutes to finish each injection (labeled as “injection” in Table 19), repeated injections measured the degradation patterns (profiles) at different incubation times. All samples were kept in a 25° C. autosampler during the entire test.
PS20-CAD subspecies method described above was used.
The solution was mixed and tested. All samples were studied at 25° C.
The solution was mixed and tested. All samples were studied at 25° C. […] More information can be found in Table 21A.
The solution was mixed and tested. More information regarding the study design can be found in Table 21A.
The solution was mixed and tested. More information regarding the study design can be found in Table 21B below.
The solution was mixed and tested. More information regarding the study design can be found in Table 21B.

“ustekinumab: comparator in the same IL-23 stimulated IL-17 production system [reference compound]” gave an IC50 [1] of 0.167 nM.

For “Immunoglobulin G1, anti-(human interleukin 23 subunit p19) (human-Mus musculus heavy chain), disulfide with human-Mus musculus κ-chain, dimer [risankizumab]”, the ADCC activity [2] was “does not possess”, the IC50 [1] was less than 0.01 nM and the “binding to human IL-23” value [3] was “high affinity”. The “inhibition of IL-12 stimulated IFN-γ production” value [4] was “does not inhibit”, the “effect on IL-12” value ([4]; maximum tested concentration (33 nM)) was “does not affect” and the “treatment-emergent ADA incidence” value [5] was “low”. For the same molecule, the COC activity [6] was “does not possess”.

With “DS4-005: risankizumab Process 4 drug substance batch” the “HMW peak by UP-SEC” value [7] was “smaller” and the “LMW peak by CGE-NR” value [8] was “smaller”.

B1: PLA2G15: hitchhiker protein enzyme spiked into DP3/DP4 material (protein)
chain: VQRHPPVVLVPGDLGNQLEAKLDKPKVVHYLCSKRTDSYFTLWLNLELLLPVIIDCWIDNIRLVYNRTSRATQFPDGVDVRVPGFGETFSLEFLDPSKRTVGSYFHTMVESLVGWGYTRGEDLRGAPYDWRRAPNENGPYFLALREMIEEMYQMYGGPVVLVAHSMGNMYTLYFLQRQPQAWKDKYIHAFISLGAPWGGVAKTLRVLASGDNNRIPVIGPLKIREQQRSAVSTSWLLPYNHTWSHDKVFVHTPTTNYTLRDYHQFFQDIRFEDGWFMRQDTEGLVEAMMPPGVELHCLYGTGVPTPDSFYYESFPDRDPKICFGDGDGTVNLESVLQCQAWQSRQEHKVSLQELPGSEHIEMLANATTLAYLKRVLFEP
With B1 the “PS20 degradation pattern (profile) versus pattern observed in DP2 materials” value ([9]; DP3 spiked with 1 μg/mL PLA2G15, 25° C.) was “matches” and the “PS20 degradation rate versus spiking level” value ([9]; DP4 spiked with 0.01875-0.6 ng/mg PLA2G15, 25° C.) was “concentration dependent PS20 degradation rates were observed”.

B2: PRDX6: Recombinant human Peroxiredoxin 6 protein (ab87631, Abcam) (protein, UniProt P30041 2-224, looked up)
Peroxiredoxin-6: PGGLLLGDVAPNFEANTTVGRIRFHDFLGDSWGILFSHPRDFTPVCTTELGRAAKLAPEFAKRNVKLIALSIDSVEDHLAWSKDINAYNCEEPTEKLPFPIIDDRNRELAILLGMLDPAEKDEKGMPVTARVVFVFGPDKKLKLSILYPATTGRNFDEILRVVISLQLTAEKRVATPVDWKDGDSVMVLPTIPEEEAKKLFPKGVFTKELPSGKKYLRYTPQP
In the case of B2, the “activity to PS20 degradation” value [9] is reported as “very low activities” and the PS20 degradation ([9]; DP3 spiked with 5 μg/mL enzyme) is reported as “no detectable PS20 degradation”.

B3: PLA2G7: Recombinant human PLA2G7/PAF-AH/LP-PLA2 protein (5106-PL-010, Bio-techne) (protein, UniProt Q13093 22-441, looked up)
Platelet-activating factor …: FDWQYINPVAHMKSSAWVNKIQVLMAAASFGQTKIPRGNGPYSVGCTDLMFDHTNKGTFLRLYYPSQDNDRLDTLWIPNKEYFWGLSKFLGTHWLMGNILRLLFGSMTTPANWNSPLRPGEKYPLVVFSHGLGAFRTLYSAIGIDLASHGFIVAAVEHRDRSASATYYFKDQSAAEIGDKSWLYLRTLKQEEETHIRNEQVRQRAKECSQALSLILDIDHGKPVKNALDLKFDMEQLKDSIDREKIAVIGHSFGGATVIQTLSEDQRFRCGIALDAWMFPLGDEVYSRIPQPLFFINSEYFQYPANIIKMKKCYSPDKERKMITIRGSVHQNFADFTFATGKIIGHMLKLKGDIDSNVAIDLSNKASLAFLQKHLGLHKDFDQWDCLIEGDDENLIPGTNINTTNQHIMLQNSSGIEKYN
In the case of B3, the “activity to PS20 degradation” value [9] is reported as “moderate activities”, the “PS20 degradation pattern (profile) versus pattern observed in DP2 materials” value ([9]; DP3 spiked with 5 μg/mL enzyme, 25° C.) is reported as “very different” and the PS20 degradation ([9]; DP3 spiked with 5 μg/mL enzyme) is reported as “caused PS20 degradation with a relatively high activity”.
